Experimental data: PMC3662962

Substrate: O=[N+]([O-])c1ccc(OP(=O)(O)O)cc1
Test: purified protein
Conditions: pH 8.0; 37.0 °C

B1: Rv1364c (Mycobacterium tuberculosis H37Rv) (protein)
chain: MAAEMDWDKTVGAAEDVRRIFEHIPAILVGLEGPDHRFVAVNAAYRGFSPLLDTVGQPAREVYPELEGQQIYEMLDRVYQTGEPQSGSEWRLQTDYDGSGVEERYFDFVVTPRRRADGSIEGVQLIVDDVTSRVRARQAAEARVEELSERYRNVRDSATVMQQALLAASVPVVPGADIAAEYLVAAEDTAAGGDWFDALALGDRLVLVVGDVVGHGVEAAAVMSQLRTALRMQISAGYTVVEALEAVDRFHKQVPGSKSATMCVGSLDFTSGEFQYCTAGHPPPLLVTADASARYVEPTGAGPLGSGTGFPVRSEVLNIGDAILFYTDGLIERPGRPLEASTAEFADLAASIASGSGGFVLDAPARPIDRLCSDTLELLLRSTGYNDDVTLLAMQRRAPTPPLHITLDATINAARTVRAQLREWLAEIGADHSDIADIVHAISEFVENAVEHGYATDVSKGIVVAAALAGDGNVRASVIDRGQWKDHRDGARGRGRGLAMAEALVSEARIMHGAGGTTATLTHRLSRPARFVTDTMVRRAAFQQTIDSEFVSLVESGRIVVRGDVDSTTAATLDRQIAVESRSGIAPVTIDLSAVTHLGSAGVGALAAACDRARKQGTECVLVAPPGSPAHHVLSLVQLPVVGADTEDIFAQE
With B1 as the protein, how does the Km read?
The Km was 3.61 ± 0.58 mM.

And the Vmax?
The Vmax was 0.09 µmol/min/mg.
